Source: publication PMC11490872, “Drug-resistant menin variants retain high binding affinity and interactions with MLL1” (The Journal of Biological Chemistry, 2024)
Read-outs that look alike come from different tables or passages of the source.

T1: menin^WT (Homo sapiens, UniProt O00255)
T1 construct: Full-length human menin was expressed in BL21(DE3) cells; thioredoxin-His6 (cleaved yes); made in house; host or cells: E. coli BL21(DE3)
T1 sequence (O00255 1-610): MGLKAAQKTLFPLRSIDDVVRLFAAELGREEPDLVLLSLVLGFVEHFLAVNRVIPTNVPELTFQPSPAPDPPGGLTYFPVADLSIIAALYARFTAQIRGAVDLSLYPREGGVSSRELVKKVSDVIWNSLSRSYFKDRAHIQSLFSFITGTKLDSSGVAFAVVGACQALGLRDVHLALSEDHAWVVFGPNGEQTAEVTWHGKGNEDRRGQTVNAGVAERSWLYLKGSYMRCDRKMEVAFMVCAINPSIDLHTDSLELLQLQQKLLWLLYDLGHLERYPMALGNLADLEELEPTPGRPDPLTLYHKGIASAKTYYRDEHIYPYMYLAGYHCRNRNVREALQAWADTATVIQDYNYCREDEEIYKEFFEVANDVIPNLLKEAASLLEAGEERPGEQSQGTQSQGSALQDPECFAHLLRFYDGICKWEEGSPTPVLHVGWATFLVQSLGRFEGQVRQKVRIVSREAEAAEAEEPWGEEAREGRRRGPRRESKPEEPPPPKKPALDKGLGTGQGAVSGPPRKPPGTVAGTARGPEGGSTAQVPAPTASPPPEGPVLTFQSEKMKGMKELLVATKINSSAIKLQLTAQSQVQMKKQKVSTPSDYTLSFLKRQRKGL

T2: menin^G331R (Homo sapiens, UniProt O00255, G326R)
T2 construct: The gene encoding full-length human menin was cloned into a pET32a expression vector; thioredoxin-His6 (cleaved yes); made in house; host or cells: E. coli BL21(DE3)
T2 sequence (O00255 1-610 G326R): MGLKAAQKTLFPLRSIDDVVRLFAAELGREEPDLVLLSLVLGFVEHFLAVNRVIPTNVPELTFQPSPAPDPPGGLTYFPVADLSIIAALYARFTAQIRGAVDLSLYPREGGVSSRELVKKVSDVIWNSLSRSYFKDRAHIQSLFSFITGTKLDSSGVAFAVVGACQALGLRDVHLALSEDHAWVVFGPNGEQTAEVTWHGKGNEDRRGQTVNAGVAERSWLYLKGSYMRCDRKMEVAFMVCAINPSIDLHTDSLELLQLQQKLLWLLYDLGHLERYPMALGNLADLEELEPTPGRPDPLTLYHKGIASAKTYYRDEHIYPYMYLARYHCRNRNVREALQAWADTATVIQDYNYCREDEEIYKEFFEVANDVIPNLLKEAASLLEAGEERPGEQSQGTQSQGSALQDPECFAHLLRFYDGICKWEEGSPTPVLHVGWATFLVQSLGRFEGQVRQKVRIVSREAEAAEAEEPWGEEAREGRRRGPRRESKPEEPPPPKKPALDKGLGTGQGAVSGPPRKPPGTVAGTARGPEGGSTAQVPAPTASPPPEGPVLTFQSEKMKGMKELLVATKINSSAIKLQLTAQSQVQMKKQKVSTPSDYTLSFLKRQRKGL

T3: menin^G331D (Homo sapiens, UniProt O00255, G326D)
T3 construct: The gene encoding full-length human menin was cloned into a pET32a expression vector; thioredoxin-His6 (cleaved yes); made in house; host or cells: E. coli BL21(DE3)
T3 sequence (O00255 1-610 G326D): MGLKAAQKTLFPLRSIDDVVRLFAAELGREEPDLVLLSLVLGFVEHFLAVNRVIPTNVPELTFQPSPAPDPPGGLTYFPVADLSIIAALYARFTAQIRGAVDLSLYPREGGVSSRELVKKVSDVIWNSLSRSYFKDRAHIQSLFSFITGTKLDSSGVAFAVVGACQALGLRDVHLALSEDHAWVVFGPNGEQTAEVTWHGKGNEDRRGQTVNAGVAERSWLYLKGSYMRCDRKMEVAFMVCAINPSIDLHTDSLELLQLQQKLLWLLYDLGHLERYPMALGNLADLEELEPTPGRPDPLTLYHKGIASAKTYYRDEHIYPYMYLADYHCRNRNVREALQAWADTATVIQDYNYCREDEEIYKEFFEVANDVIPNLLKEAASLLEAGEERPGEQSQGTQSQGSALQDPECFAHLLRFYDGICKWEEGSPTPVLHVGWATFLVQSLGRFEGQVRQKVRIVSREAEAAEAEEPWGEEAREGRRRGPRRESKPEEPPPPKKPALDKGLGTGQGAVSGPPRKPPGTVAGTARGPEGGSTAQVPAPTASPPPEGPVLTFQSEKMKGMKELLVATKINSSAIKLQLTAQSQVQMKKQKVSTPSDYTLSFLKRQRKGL


Experiments:
menin M327I = tested on: menin M327I; parameters: method as in PMID 36922589; details: versus wild-type menin; cited from earlier work
[1] = tested on: patients with MLL1-r and NPM1-mut acute leukemias; details: cited from earlier work
menin^WT = biological target: T1, menin^WT; experiment: ITC binding of MLL1 fragments to menin^WT
Experimental: (§1) Menin and MLL1 fragments were dialyzed at 4 °C against a 50 mM sodium phosphate pH 7.5, 50 mM NaCl, 1 mM TCEP buffer, and degassed prior to measurement. The titrations were performed using the VP-ITC system (MicroCal) at 25 °C. The calorimetric cell, which contained menin (concentrations in the 5–10 μM range), was titrated with the MLL1^160 and MLL1^4-15 derived peptides (concentration range 40–100 μM) injected in 10-μL aliquots. Data was analyzed using Origin 7.0 (OriginLab) to obtain Kd, stoichiometry, entropy, and enthalpy ([2]). Experiments with WT, M327I, T349M, and G331R menin and MLL1^160 or MLL1^4-15 were run in duplicate. Experiments with G331D menin and MLL1^160 were run in duplicate while experiments with G331D and MLL1^4-15 were run in quadruplicate.

menin^G331R = biological target: T2, menin^G331R; experiment: ITC binding of MLL1 fragments to menin^G331R
Experimental: as §1

menin^G331D = biological target: T3, menin^G331D; experiment: ITC binding of MLL1 fragments to menin^G331D
Experimental: as §1

[2] = Phase 1/2, AML patients with KMT2A (MLL1) rearrangements and NPM1 mutations
[3] = ITC, representative binding isotherm Fig. 1A, 25 °C, read-out: Kd

Kd (menin^WT; ITC summary Fig. 1B, values marked *, n = 2, read-out: WT Kd (nM), ITC) [nM]	Kd (menin^WT; [3]) [nM]	Kd (menin^G331R; ITC summary Fig. 1B, values marked *, n = 2, read-out: G331R Kd (nM), ITC) [nM]	Kd (menin^G331R; [3]) [nM]	Kd (menin^G331D; ITC summary Fig. 1B, * n = 2, ^ n = 4, read-out: G331D Kd (nM), ITC) [nM]	Kd (menin^G331D; [3]) [nM]	Molecule	reduction of binding by M327I mutation (menin M327I) [fold]	complete remission [1, 2] [%]	overall response rate [1, 2] [%]	rate of complete remission ([1]; phase 1/2 first-in-human trials, MLL1-r and NPM1-mut acute leukemias)
						CCN(C(=O)c1cc(F)ccc1Oc1cncnc1N1CC2(CCN(C[C@H]3CC[C@H](NS(=O)(=O)CC)CC3)CC2)C1)C(C)C [Revumenib, reference compound]	51	~35	~45	over 30%
0.5 ± 0.3	0.5 ± 0.2	1.3 ± 0.3	1.1 ± 0.3	1.4 ± 0.7	1.4 ± 0.7	MLL1^160: N-terminal 160 amino acids of human MLL1, Cys2 mutated to alanine, recombinant (protein, The printed 'Cys2' is the single N-terminal cysteine, Cys5 in the entry (peptide S4-A5-R6); Trx-His6 tag cleaved) MAHSARWRFPARPGTTGGGGGGGRRGLGGAPRQRVPALLLPPGPPVGGGGPGAPPSPPAVAAAAAAAGSSGAGVPGGAAAASAASSSSASSSSSSSSSASSGPALLRVGPGFDAALQVSAAIGTNLRRFRAVFGESGGGGGSGEDEQFLGFGSDEEVRVR				
